According to patent US20240218057A1:

Experiments:
Experiment in all cases: cell-based or functional assay
[1] = molecular target: wildtype SARS-COV-2 spike protein on pseudotyped virus (SARS-CoV-2) (UniProt P0DTC2)
[2] = molecular target: SARS-COV-2 spike protein (pSARS-COV-2-SΔ19) on HIV-1 pseudotyped particles (SARS-COV-2) (UniProt P0DTC2)
[3] = molecular target: SARS-CoV-2 spike protein (wild type, pSARS-COV-2-SΔ19) on HIV-1 pseudotyped particles (SARS-CoV-2) (UniProt P0DTC2)
[4] = molecular target: wildtype SARS-CoV-2 spike protein (pseudovirus) (SARS-CoV-2) (UniProt P0DTC2)

Substance | neutralization IC50 [1] | neutralization IC90 [1] | IC50 [2] | IC90 [2] | Neutralization activity IC50 [3] | Neutralization activity IC90 [3] | IC50 neutralization [4] | IC90 neutralization [4]
C121 (antibody) | 0.0051 µg/mL | 0.0198 µg/mL |  |  |  |  |  | 
C135 (antibody) | 0.00859 µg/mL | 0.0406 µg/mL |  |  |  |  |  | 
C144 (antibody) | 0.00374 µg/mL | 0.0159 µg/mL | 0.00286 µg/mL | 0.0405 µg/mL | 0.00286 µg/mL | 0.0405 µg/mL | 0.0037 µg/mL | 0.0159 µg/mL
